Bounds are passed on as bounds.

The term Kd denotes the constant that tells how readily two partners part at equilibrium.

The target of test [1] is recombinant His-tagged full-length ERG (UniProt P11308). The test is described as follows: Kd table of synthetic peptides on ERG; assay not given.
The target is the same in test [2]. The test is described as follows: OctetRED; Kd table of synthetic peptides on ERG.

Sequence of recombinant His-tagged full-length ERG (P11308 whole entry): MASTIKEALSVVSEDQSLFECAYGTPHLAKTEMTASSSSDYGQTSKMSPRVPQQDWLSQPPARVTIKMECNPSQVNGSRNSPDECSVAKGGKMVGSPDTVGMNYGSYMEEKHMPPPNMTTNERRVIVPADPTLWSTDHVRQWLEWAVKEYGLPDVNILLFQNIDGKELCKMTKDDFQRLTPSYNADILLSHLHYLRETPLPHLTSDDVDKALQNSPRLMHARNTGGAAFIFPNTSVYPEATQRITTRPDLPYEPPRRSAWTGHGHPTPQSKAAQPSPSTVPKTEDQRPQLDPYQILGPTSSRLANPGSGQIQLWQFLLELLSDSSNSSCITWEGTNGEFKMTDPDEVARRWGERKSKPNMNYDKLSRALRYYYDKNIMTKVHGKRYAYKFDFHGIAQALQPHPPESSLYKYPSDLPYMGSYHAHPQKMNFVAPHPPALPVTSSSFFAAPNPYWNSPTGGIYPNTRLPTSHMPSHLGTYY

With “3-mer PYL capped at both termini (Ac-PYL-NH2) (peptide)”, in test [1], the Kd worked out at 7.5 µM.

As for “7-mer LPPYLFT capped at the C-terminus only (LPPYLFT-NH2) (peptide)”, the Kd in test [2] was more than 100 µM.

Regarding “EIP1 capped at both termini (Ac-LPPYLFT-NH2) (peptide)”, the Kd in test [2] and in test [1] was more than 100 µM in each case.

For “3-mer PYL capped at the N-terminus only (Ac-PYL) (peptide)”, the Kd in test [1] amounted to 8.7 µM.
